The data set concerns the molecule itself. Kind of data set: crystal structure.

B1: RdmB, N-terminal His6-tagged (enzyme, Streptomyces purpurascens)
chain: MSSSSPGEPLEPTDQDLDVLLKNLGNLVTPMALRVAATLRLVDHLLAGADTLAGLADRTDTHPQALSRLVRHLTVVGVLEGGEKQGRPLRPTRLGMLLADGHPAQQRAWLDLNGAVSHADLAFTGLLDVVRTGRPAYAGRYGRPFWEDLSADVALADSFDALMSCDEDLAYEAPADAYDWSAVRHVLDVGGGNGGMLAAIALRAPHLRGTLVELAGPAERARRRFADAGLADRVTVAEGDFFKPLPVTADVVLLSFVLLNWSDEDALTILRGCVRALEPGGRLLVLDRADVEGDGADRFFSTLLDLRMLTFMGGRVRTRDEVVDLAGSAGLALASERTSGSTTLPFDFSILEFTAVSEEAAPAAQASEALPAQE
With B1, the binding result is reported as “binds”.

(Values after paper doi:10.1101/2024.05.03.592356 (bioRxiv, 2024).)
